Publication PMC11053110 (Nature Communications, 2024)

Target: T1, GST-tagged IRF3 (human, UniProt Q14653 1-427)
T1 construct: also called GST-IRF3
T1 sequence (looked up): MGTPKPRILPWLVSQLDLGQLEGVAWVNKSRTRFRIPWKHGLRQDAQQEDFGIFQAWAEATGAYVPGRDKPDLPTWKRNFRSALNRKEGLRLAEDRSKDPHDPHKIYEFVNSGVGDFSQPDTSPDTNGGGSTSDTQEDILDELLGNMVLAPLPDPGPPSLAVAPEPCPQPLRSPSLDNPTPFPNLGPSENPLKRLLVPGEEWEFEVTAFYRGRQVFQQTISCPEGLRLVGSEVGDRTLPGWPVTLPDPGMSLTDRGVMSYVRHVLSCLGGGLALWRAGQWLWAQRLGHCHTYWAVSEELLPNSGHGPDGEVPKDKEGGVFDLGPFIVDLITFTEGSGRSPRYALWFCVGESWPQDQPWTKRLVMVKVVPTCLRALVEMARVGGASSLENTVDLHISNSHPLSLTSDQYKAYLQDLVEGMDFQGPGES
Assay: pull-down
Conditions: both partners purified

binding result: binds
B1: His-tagged EGLN1 (enzyme, human, UniProt Q9GZT9 1-426, looked up)
chain: MANDSGGPGGPSPSERDRQYCELCGKMENLLRCSRCRSSFYCCKEHQRQDWKKHKLVCQGSEGALGHGVGPHQHSGPAPPAAVPPPRAGAREPRKAAARRDNASGDAAKGKVKAKPPADPAAAASPCRAAAGGQGSAVAAEAEPGKEEPPARSSLFQEKANLYPPSNTPGDALSPGGGLRPNGQTKPLPALKLALEYIVPCMNKHGICVVDDFLGKETGQQIGDEVRALHDTGKFTDGQLVSQKSDSSKDIRGDKITWIEGKEPGCETIGLLMSSMDDLIRHCNGKLGSYKINGRTKAMVACYPGNGTGYVRHVDNPNGDGRCVTCIYYLNKDWDAKVSGGILRIFPEGKAQFADIEPKFDRLLFFWSDRRNPHEVQPAYATRYAITVWYFDADERARAKVKYLTGEKGVRVELNKPSDSVGKDVF
notes: also called His-EGLN1
